Experimental findings from paper PMC6690836 (Angewandte Chemie (International ed. in English), 2016) are described below.

This data set deals with the molecule itself. Kind of data set: crystal structure.

B1: Water soluble chlorophyll binding protein from cauliflower (CaWSCP), recombinant, assembled with Chl a (natural protein)
chain: REQVKDSNGNPVKRGAKYFIQPAKSNGGGLVPAAINILPFCPLGITQTLLPYQPGLPVSFGYEPVIVGTDYIYTSTTINIEFRSEIWPVCNELSKLWAVDVSSSAAKEPAIIIGGERTAPNSLFKIEEATGAHTYKLTTSSGTVGTIPGPWLGAPQLIATNDDAKTLFVKFVKVDDDAT
The stoichiometry N is a count of units in the complex or per binding partner. For the protein B1, the “stoichiometry N” value was 4.
